Measured values as given in patent US20170066831A1 (Janssen / Centocor, published 2017).
Changes are numbered by the printed parent chain.

T1: human ST2L, full length, on cells (human, UniProt Q01638 19-556)
T1 sequence: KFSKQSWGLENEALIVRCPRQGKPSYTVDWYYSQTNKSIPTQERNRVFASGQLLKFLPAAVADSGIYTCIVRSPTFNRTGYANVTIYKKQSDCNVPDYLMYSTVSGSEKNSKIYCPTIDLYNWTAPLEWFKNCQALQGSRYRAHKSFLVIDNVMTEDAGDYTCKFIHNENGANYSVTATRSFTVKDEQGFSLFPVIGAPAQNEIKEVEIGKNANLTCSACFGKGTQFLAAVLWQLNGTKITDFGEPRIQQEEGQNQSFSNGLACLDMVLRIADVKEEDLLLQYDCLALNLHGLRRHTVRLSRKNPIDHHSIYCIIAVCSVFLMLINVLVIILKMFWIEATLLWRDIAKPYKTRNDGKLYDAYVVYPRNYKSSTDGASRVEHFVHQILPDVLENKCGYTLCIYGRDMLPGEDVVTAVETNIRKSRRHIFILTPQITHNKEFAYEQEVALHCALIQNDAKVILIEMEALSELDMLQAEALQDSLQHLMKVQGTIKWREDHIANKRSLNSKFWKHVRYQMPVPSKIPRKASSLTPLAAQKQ

T2: human ST2L extracellular domain with C-terminal His6 tag (human, UniProt Q01638 19-328)
T2 construct: also called huST2L-ECD; ST2L-ECD
T2 sequence: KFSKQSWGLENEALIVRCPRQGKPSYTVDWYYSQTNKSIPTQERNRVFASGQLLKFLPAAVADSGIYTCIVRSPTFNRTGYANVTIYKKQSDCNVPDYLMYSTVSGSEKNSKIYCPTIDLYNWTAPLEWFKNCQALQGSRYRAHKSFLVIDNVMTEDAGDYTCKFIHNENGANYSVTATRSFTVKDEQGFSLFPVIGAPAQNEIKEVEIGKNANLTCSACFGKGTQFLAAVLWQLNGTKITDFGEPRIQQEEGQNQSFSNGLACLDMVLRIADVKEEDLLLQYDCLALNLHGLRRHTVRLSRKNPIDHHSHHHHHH

T3: cynomolgus (Macaca fascicularis) ST2L extracellular domain with C-terminal His6 tag (Macaca fascicularis (cynomolgus), UniProt Q01638 19-321 (human entry))
T3 construct: also called cyno ST2L-ECD; cynoST2L-ECD
T3 chain: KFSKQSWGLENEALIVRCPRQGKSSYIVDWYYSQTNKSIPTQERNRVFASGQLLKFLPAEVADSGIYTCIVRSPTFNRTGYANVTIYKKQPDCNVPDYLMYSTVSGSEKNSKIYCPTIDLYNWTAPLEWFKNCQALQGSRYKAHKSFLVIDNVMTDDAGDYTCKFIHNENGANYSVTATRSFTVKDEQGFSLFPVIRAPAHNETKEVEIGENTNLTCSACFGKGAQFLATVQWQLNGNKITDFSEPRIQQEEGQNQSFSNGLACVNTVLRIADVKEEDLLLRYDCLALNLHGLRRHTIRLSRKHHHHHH

B1: STLM226 (antibody, V domains shown)
VH: EVQLVQSGAEVKKPGATVKISCKVSAFNIKDDYMHWVQQAPGKGLEWMGRIDPAIGNTEYAEKFQGRVTITADTSTDTAYMELSSLRSEDTAVYYCATGDFYAMAYWGQGTLVTVSS
VL: DIQMTQSPSSLSASVGDRVTITCITNTDIDDVIHWYQQKPGKAPKLLIYEGNTLRPGVPSRFSGSGSGTDFTLTISSLQPEDFATYYCLQSDNLLTFGQGTKLEIK
notes: VH STLH201 + VL STLL280
B2: STLM229 (antibody, V domains shown)
VH: B1 VH
VL: B1 VL with L11V, L94M
notes: VH STLH201 + VL STLL275
B3: STLM230 (antibody, V domains shown)
VH: B1 VH
VL: B1 VL with L94M
notes: VH STLH201 + VL STLL274
B4: STLM232 (antibody, V domains shown)
VH: B1 VH
VL: B1 VL with L73F, F83I, L94M
notes: VH STLH201 + VL STLL272
B5: STLM231 (antibody, V domains shown)
VH: B1 VH
VL: B1 VL with A43V, F83V, L94M
notes: VH STLH201 + VL STLL273; also called S1LM231
B6: STLM227 (antibody, V domains shown)
VH: B1 VH
VL: B1 VL with M4L, S10F, D70E, L94M
notes: VH STLH201 + VL STLL277
B7: STLM228 (antibody, V domains shown)
VH: B1 VH
VL: B1 VL with S10T, D70E, E81D, L94M
notes: VH STLH201 + VL STLL276
B8: STLM219 (antibody, V domains shown)
VH: EVQLLESGGGLVQPGGSLRLSCAASGFTFSGYDMFWVRQAPGKGLEWVSDIGGEGGSTNYADSVKGRFTISRDNSKNTLYLQMNSLRAEDTAVYYCARDPWSTEGSFFVLDYWGQGTLVTVSS
VL: EIVLTQSPATLSLSPGERATLSCRASQSVDDDLAWYQQKPGQAPRLLIYDASNRATGIPARFSGSGSGTDFTLTISSLEPEDFAVYYCQQYIGAPITFGQGTKVEIK
notes: frameworks VH3-23 / Vk-L6
B9: STLM211 (antibody, V domains shown)
VH: B8 VH with D33A, F35I, D50Y, G52E, S57E, N59Y
VL: EIVLTQSPATLSLSPGERATLSCRASQSVDDDLAWYQQKPGQAPRLLIYDASNRATGIPARFSGSGSGTDFTLTISSLEPEDFAVYYCQQYNDAITFGQGTKVEIK
notes: frameworks VH3-23 / Vk-L6
B10: STLM210 (antibody, V domains shown)
VH: B8 VH with G31D, Y32D, D33A, F35I, D50Y, E54N, S57T, N59Y
VL: B9 VL
notes: frameworks VH3-23 / Vk-L6
B11: STLM221 (antibody, V domains shown)
VH: B8 VH with G31I, D50Y, G52R, S57D
VL: B8 VL
notes: frameworks VH3-23 / Vk-L6
B12: STLM212 (antibody, V domains shown)
VH: B8 VH with G31V, F35I, D50T, G52R, S57G, N59Y
VL: B9 VL
notes: frameworks VH3-23 / Vk-L6
B13: STLM222 (antibody, V domains shown)
VH: B8 VH with G31I, D33S, S57G, N59S
VL: B8 VL
notes: frameworks VH3-23 / Vk-L6

Target: T1, human ST2L, full length, on cells
Test: cell-based or functional assay

Row | RGA IC50 [µg/mL] | Binder
1 | 0.25 | B1
2 | 0.32 | B2
3 | 0.15 | B3
4 | 0.15 | B4
5 | 1.1 | B5
6 | 0.23 | B6
7 | 0.28 | B7
8 | 3.16 | B8
9 | 2.52 | B9
10 | 2.1 | B10
11 | 2.79 | B11
12 | 4.32 | B12
13 | 1.88 | B13

Target: T2, human ST2L extracellular domain with …
Test: SPR, mAb captured, ST2L-ECD in solution

Row | Kd [pM] | koff [s⁻¹] | kon [M⁻¹ s⁻¹] | Binder
14 | 90 | 0.00193 | 2.16e+07 | B1
15 | 35 | 0.000445 | 1.29e+07 | B2
16 | 38 | 0.000426 | 1.11e+07 | B3
17 | 25 | 0.000449 | 1.78e+07 | B4
18 | 46 | 0.000913 | 1.97e+07 | B5
19 | 64 | 0.0017 | 2.66e+07 | B6
20 | 52 | 0.00104 | 2.01e+07 | B7
21 | 27 | 0.000201 | 7.54e+06 | B8
22 | 29 | 0.000483 | 1.7e+07 | B9
23 | 19 | 0.000227 | 1.21e+07 | B10
24 | 35 | 9.61e-05 | 2.73e+06 | B11
25 | 32 | 0.000398 | 1.24e+07 | B12
26 | 37 | 0.000301 | 8.22e+06 | B13

Target: T3, cynomolgus (Macaca fascicularis) ST2L …
Test: SPR, mAb captured, ST2L-ECD in solution

Row | Kd [pM] | koff [s⁻¹] | kon [M⁻¹ s⁻¹] | Binder
27 | 301 | 0.0301 | 1e+08 | B1
28 | 85 | 0.0085 | 1e+08 | B2
29 | 144 | 0.0073 | 5.06e+07 | B3
30 | 80 | 0.00797 | 1e+08 | B4
31 | 172 | 0.0143 | 8.27e+07 | B5
32 | 294 | 0.0294 | 1e+08 | B6
33 | 155 | 0.0155 | 1e+08 | B7
34 | 22 | 0.00023 | 1.07e+07 | B8
35 | 14 | 0.00139 | 1e+08 | B9
36 | 9 | 0.000528 | 5.7e+07 | B10
37 | 22 | 0.00013 | 6.04e+06 | B11
38 | 24 | 0.000346 | 1.43e+07 | B12
39 | 29 | 0.000345 | 1.18e+07 | B13

Target: T2, human ST2L extracellular domain with …
Test: RLB ELISA: biotinylated IL-33 on coated huST2L-ECD, antibody titrated
Procedure: 96-well plate was coated with 50 μl of 4 μg/ml human ST2L-ECD (amino acids 19-328 of SEQ ID NO: 1) or 2 μg/ml cyno ST2L-ECD (amino acids 19-321 of SEQ ID NO: 2) having C-terminal His₆ tag in bicarbonate buffer at 4° C. for 16 hrs. All subsequent steps were performed at room temperature. Plate was blocked with 200 μl blocking buffer, and was washed 3 times with 300 μl of wash buffer containing PBS+0.05% Tween. 30 μl of various dilutions of anti-ST2L mAbs were added to the wells and incubated for 1 hour. For human receptor-ligand binding assay 20 μl of biotinylated human IL-33 (residues 112-270 of SEQ ID NO: 3) was added at 100 ng/ml final concentration and incubated for 30 minutes. For cyno receptor-ligand binding assay 20 μl of biotinylated cyno IL-33 (residues 112-269 of SEQ ID NO: 4) was added at 200 ng/ml final concentration and incubated for 30 minutes. The plate was washed 3 times with 300 μl of wash buffer. 50 μl of 0.2 μg/ml Streptavidin-HRP (Jackson Immunoresearch) was added and incubated for 30 min. The plate was washed 3 times with 300 μl of wash buffer containing PBS+0.05% Tween. 50 μl of TMB substrate (EMD Biosciences) was added to each well. Reaction was stopped by the addition of 100 μl of 0.2N Sulfuric Acid. OD450 were measured using Envision plate reader (Perkin Elmer).

Row | IC50 [µg/mL] | Binder
40 | 0.26 | B1
41 | 0.29 | B2
42 | 0.28 | B3
43 | 0.31 | B4
44 | 0.26 | B5
45 | 0.17 | B6
46 | 0.2 | B7
47 | 0.29 | B8
48 | 0.28 | B9
49 | 0.3 | B10
50 | 0.39 | B11
51 | 0.33 | B12
52 | 0.25 | B13
